Test results taken from patent US20070212705.
Read-outs that look alike come from different tables or passages of the source.

T1: Tetrapeptide Lys substrate L-Ala-γ-D-Glu-L-Lys-D-Ala
T1 chain: AEKA

B1: P. aeruginosa L-D carboxypeptidase A (PA LDC), N-terminal his-tagged, expressed from pET14b in E. coli BL21 (protein)
chain: MTSRPSSDQTWQPIDGRVALIAPASAIATDVLEATLRQLEVHGVDYHLGRHVEARYRYLAGTVEQRLEDLHNAFDMPDITAVWCLRGGYGCGQLLPGLDWGRLQAASPRPLIGFSDISVLLSAFHRHGLPAIHGPVATGLGLSPLSAPREQQERLASLASVSRLLAGIDHELPVQHLGGHKQRVEGALIGGNLTALACMAGTLGGLHAPAGSILVLEDVGEPYYRLERSLWQLLESIDARQLGAICLGSFTDCPRKEVAHSLERIFGEYAAAIEVPLYHHLPSGHGAQNRAWPYGKTAVLEGNRLRW
B2: E. coli LDC protein (muramoyl-tetrapeptide carboxypeptidase P76008) (protein)
chain: MSLFHLIAPSGYCIKQHAALRGIQRLTDAGHQVNNVEVIARRCERFAGTETERLEDLNSLARLTTPNTIVLAVRGGYGASRLLADIDWQALVARQQHDPLLICGHSDFTAIQCGLLAHGNVITFSGPMLVANFGADELNAFTEHHFWLALRNETFTIEWQGEGPTCRAEGTLWGGNLAMLISLIGTPWMPKIENGILVLEDINEHPFRVERMLLQLYHAGILPRQKAIILGSFSGSTPNDYDAGYNLESVYAFLRSRLSIPLITGLDFGHEQRTVTLPLGAHAILNNTREGTQLTISGHPVLKM

Target: T1, Tetrapeptide Lys substrate …

Row | Protein | cleavage of tetrapeptide substrate | cleavage of tetrapeptide substrate (RFU, Amplex Red detection of D-alanine released) (scale: fold lower specific activity compared to E. coli LDC) | cleavage of tetrapeptide substrate (RFU, Amplex Red detection of D-alanine released)
1 | B1 | express a functional PA LDC protein that cleaved a tetrapeptide substrate in a dose dependent manner | 2 | 
2 | B2 |  |  | illustrates the cleavage of a tetrapeptide substrate (L-Ala-γ-D-Glu-L-Lys-D-Ala) by E. coli LDC (squares)
